Reference: patent US20130058911

B1: recombinant putative NAD(P)H nitroreductase (yodC) of Bacillus subtilis with C-terminal 6x His-tag (protein)
chain: MTNTLDVLKARASVKEYDTNAPISKEELTELLDLATKAPSAWNLQHWHFTVFHSDESKAELLPVAYNQKQIVESSAVVAILGDLKANENGEEVYAELASQGYITDEIKQTLLGQINGAYQSEQFARDSAFLNASLAAMQLMIAAKAKGYDTCAIGGFNKEQFQKQFDISERYVPVMLISIGKAVKPAHQSNRLPLSKVSTWLHHHHHH
B2: recombinant dihydrolipoyl dehydrogenase (DLD) with His tag (protein)
chain: MVVGDFPIETDTLVIGAGPGGYVAAIRAAQLGQKVTVVEKATLGGVCLNVGCIPSKALINAGHRYENAKHSDDMGITAENVTVDFTKVQEWKASVVNKLTGGVAGLLKGNKVDVVKGEAYFVDSNSVRVMDENSAQTYTFKNAIIATGSRPIELPNFKYSERVLNSTGALALKEIPKKLVVIGGGYIGTELGTAYANFGTELVILEGGDEILPGFEKQMSSLVTRRLKKKGNVEIHTNAMAKGVEERPDGVTVTFEVKGEEKTVDADYVLITVGRRPNTDELGLEQVGIEMTDRGIVKTDKQCRTNVPNIYAIGDIIEGPPLAHKASYEGKIAAEAIAGEPAEIDYLGIPAVVFSEPELASVGYTEAQAKEEGLDIVAAKFPFAANGRALSLNETDGFMKLITRKEDGLVIGAQIAGASASDMISELSLAIEGGMTAEDIAMTIHAHPTLGEITMEAAEVAIGSPIHIVKHHHHHH
B3: recombinant dihydrolipoyl dehydrogenase (DLD) without His tag (protein)
chain: MVVGDFPIETDTLVIGAGPGGYVAAIRAAQLGQKVTVVEKATLGGVCLNVGCIPSKALINAGHRYENAKHSDDMGITAENVTVDFTKVQEWKASVVNKLTGGVAGLLKGNKVDVVKGEAYFVDSNSVRVMDENSAQTYTFKNAIIATGSRPIELPNFKYSERVLNSTGALALKEIPKKLVVIGGGYIGTELGTAYANFGTELVILEGGDEILPGFEKQMSSLVTRRLKKKGNVEIHTNAMAKGVEERPDGVTVTFEVKGEEKTVDADYVLITVGRRPNTDELGLEQVGIEMTDRGIVKTDKQCRTNVPNIYAIGDIIEGPPLAHKASYEGKIAAEAIAGEPAEIDYLGIPAVVFSEPELASVGYTEAQAKEEGLDIVAAKFPFAANGRALSLNETDGFMKLITRKEDGLVIGAQIAGASASDMISELSLAIEGGMTAEDIAMTIHAHPTLGEITMEAAEVAIGSPIHIVK
B4: recombinant malate dehydrogenase (MDH) of Bacillus subtilis with C-terminal 6x His-tag (protein)
chain: MGNTRKKVSVIGAGFTGATTAFLIAQKELADVVLVDIPQLENPTKGKALDMLEASPVQGFDAKITGTSNYEDTAGSDIVVITAGIARKPGMSRDDLVSTNEKIMRSVTQEIVKYSPDSIIVVLTNPVDAMTYAVYKESGFPKERVIGQSGVLDTARFRTFVAEELNLSVKDVTGFVLGGHGDDMVPLVRYSYAGGIPLETLIPKERIDAIVERTRKGGGEIVNLLGNGSAYYAPAASLTEMVEAILKDQRRVLPTIAYLEGEYGYEGIYLGVPTIVGGNGLEQIIELELTDYERAQLNKSVESVKNVMKVLSHHHHHH

Target: metmyoglobin
Sequence (P68082 2-154): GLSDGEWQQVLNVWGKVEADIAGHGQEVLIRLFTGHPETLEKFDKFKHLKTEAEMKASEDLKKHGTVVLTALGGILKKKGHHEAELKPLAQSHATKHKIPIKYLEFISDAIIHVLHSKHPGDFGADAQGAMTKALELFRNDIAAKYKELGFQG

Protein | metmyoglobin reduction activity (change in A406 with NADH) | reactivity for myoglobin (relative to DLD)
B1 | the activity of yodC was confirmed | In comparison with DLD, yodC showed about 2.6 times and 22 times higher reactivity for potassium ferricyanide and myoglobin, respectively
B2 | Both of them showed 10 times or more higher metmyoglobin reduction activity than the empty vector | –
B3 | Both of them showed 10 times or more higher metmyoglobin reduction activity than the empty vector | –
B4 | the activity of MDH was not found | –
